From publication PMC3604701
Where two headings read alike, the source gives them in different places.

Tests used:
[1] = target: LSD1 (residues 151–852), lysine-specific demethylase 1 (human) (UniProt O60341); test: ITC
[2] = target: LSD1 (residues 151–852), lysine-specific demethylase 1 (human) (UniProt O60341); test: ITC; remark: listed apart in the source
[3] = target: LSD1 (residues 151–852), lysine-specific demethylase 1 (human) (UniProt O60341); test: ITC; remark: listed apart in the source
[4] = target: LSD1 (residues 151–852), lysine-specific demethylase 1 (human) (UniProt O60341); test: ITC; remark: listed apart in the source
[5] = target: LSD1 (residues 151–852), lysine-specific demethylase 1 (human) (UniProt O60341); test: ITC; remark: listed apart in the source
[6] = target: LSD1 (residues 151–852), lysine-specific demethylase 1 (human) (UniProt O60341); test: ITC; remark: listed apart in the source
[7] = target: LSD1 (residues 151–852), lysine-specific demethylase 1 (human) (UniProt O60341); test: ITC; remark: listed apart in the source
[8] = target: LSD1 (residues 151–852), lysine-specific demethylase 1 (human) (UniProt O60341); test: ITC; remark: listed apart in the source
[9] = target: LSD1 (residues 151–852), lysine-specific demethylase 1 (human) (UniProt O60341); test: ITC; remark: listed apart in the source
[10] = target: LSD1 (residues 151–852), lysine-specific demethylase 1 (human) (UniProt O60341); test: ITC; remark: listed apart in the source
[11] = target: LSD1 (residues 151–852), lysine-specific demethylase 1 (human) (UniProt O60341); test: ITC; remark: listed apart in the source
[12] = target: LSD1 (residues 151–852), lysine-specific demethylase 1 (human) (UniProt O60341); test: ITC; remark: listed apart in the source
[13] = target: LSD1 (residues 151–852), lysine-specific demethylase 1 (human) (UniProt O60341); test: ITC; remark: listed apart in the source
[14] = target: CoREST (RCOR1) residues 286-482 (linker region + SANT2 domain) (UniProt Q9UKL0); test: ITC; settings: pH 7.4, no added salt, not stated numerically, 50 mM sodium phosphate
UniProt Q9UKL0, sequence (Q9UKL0 whole entry, the tested form may be a part): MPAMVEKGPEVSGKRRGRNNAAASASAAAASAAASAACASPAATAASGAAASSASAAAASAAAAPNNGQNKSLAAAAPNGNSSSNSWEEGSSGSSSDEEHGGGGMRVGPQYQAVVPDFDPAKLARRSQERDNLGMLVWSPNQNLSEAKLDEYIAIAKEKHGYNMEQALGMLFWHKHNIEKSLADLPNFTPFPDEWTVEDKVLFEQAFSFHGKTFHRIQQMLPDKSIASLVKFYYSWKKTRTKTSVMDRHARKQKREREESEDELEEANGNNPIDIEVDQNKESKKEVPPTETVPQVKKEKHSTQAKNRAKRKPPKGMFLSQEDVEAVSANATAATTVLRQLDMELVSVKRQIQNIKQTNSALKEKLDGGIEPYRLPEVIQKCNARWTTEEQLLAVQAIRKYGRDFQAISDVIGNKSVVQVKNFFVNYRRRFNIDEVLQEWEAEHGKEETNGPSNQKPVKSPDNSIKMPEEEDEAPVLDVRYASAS

[15] = target: CoREST (RCOR1) residues 286-482 (linker region + SANT2 domain) (UniProt Q9UKL0); test: ITC; settings: pH 7.4, 25 °C, no added salt, not stated numerically
[16] = target: CoREST (RCOR1) residues 286-482 (linker region + SANT2 domain) (UniProt Q9UKL0); test: ITC; settings: pH 7.4; 25 °C; no added salt; not stated numerically; 50 mM sodium phosphate
[17] = target: CoREST (RCOR1) residues 286-482 (linker region + SANT2 domain) (UniProt Q9UKL0); test: SPR; settings: pH 7.4; no added salt; not stated numerically; 50 mM sodium phosphate

In the case of “linker region^293–380 of CoREST (domain or fragment)”, the Kd [1] is reported as 7.78 nM, the dH [1] is reported as -56.5 kJ/mol and the stoichiometry N [1] is reported as 0.96.

For “CoREST^286–482 (linker region and SANT2 domain) (domain or fragment)”, the Ka [1] was 6.29e+07 M⁻¹, the Kd [1] was 15.9 nM and the dH [1] was -89.1 kJ/mol. It also gave a stoichiometry N [1] of 1.14, a Kd [2] of 21.2 nM and a dH (ΔHcal) [2] of -52.7 kJ/mol. It also gave a stoichiometry N [2] of 0.93, a Kd [3] of 8.54 nM and a dH (ΔHcal) [3] of -45.6 kJ/mol. It also gave a stoichiometry N [3] of 0.92, a Kd [4] of 11.7 nM and a dH (ΔHcal) [4] of -63.6 kJ/mol. It also gave a stoichiometry N [4] of 1.01, a Kd [5] of 5.84 nM and a dH (ΔHcal) [5] of -72.8 kJ/mol. The stoichiometry N [5] was 0.91, the Kd [6] was 21.7 nM and the dH [6] was -17.7 kJ/mol. For the same substance, the stoichiometry N [6] was 0.99, the Kd [7] was 3.7 nM and the dH [7] was -67.4 kJ/mol. For the same substance, the stoichiometry N [7] was 1.03, the Kd [8] was 8.03 nM and the dH [8] was -84.5 kJ/mol. For the same substance, the stoichiometry N [8] was 0.97, the Kd [9] was 7.66 nM and the dH [9] was -65.3 kJ/mol. For the same substance, the stoichiometry N [9] was 1, the Kd [10] was 4.18 nM and the dH [10] was -35.8 kJ/mol. For the same substance, the stoichiometry N [10] was 0.9, the Kd [11] was 6.75 nM and the dH [11] was -54 kJ/mol. For the same substance, the stoichiometry N [11] was 1, the Kd [12] was 17.3 nM and the dH (ΔHcal) [12] was -81.6 kJ/mol. For the same substance, the stoichiometry N [12] was 1.11, the Kd [13] was 3.18 nM and the dH [13] was -50.6 kJ/mol. For the same substance, the stoichiometry N [13] was 1.01.

Work on “LSD1 (KDM1A, lysine-specific histone demethylase 1) residues 151-852” yielded a ΔG ([14]; 15 °C) of -42.3 kJ/mol, a Ka ([14]; 25 °C) of 6.29e+07 M⁻¹ and a ΔG ([14]; 25 °C) of -44.4 kJ/mol. For the same substance, the ΔH ([14]; 25 °C) was -89.1 kJ/mol, the ΔG ([14]; 30 °C) was -49 kJ/mol and the ΔG ([14]; 35 °C) was -47.7 kJ/mol. It also gave a ΔG ([15]; 50 mM ACES) of -42.3 kJ/mol, a ΔHcal ([15]; 50 mM ACES) of -52.7 kJ/mol and a ΔG ([15]; 50 mM HEPES) of -45.6 kJ/mol. The ΔHcal ([15]; 50 mM HEPES) was -63.6 kJ/mol, the ΔG ([15]; 50 mM PIPES) was -46.9 kJ/mol and the ΔHcal ([15]; 50 mM PIPES) was -72.8 kJ/mol. It also gave a ΔG ([15]; 50 mM Tris) of -45.2 kJ/mol, a ΔHcal ([15]; 50 mM Tris) of -45.6 kJ/mol and a ΔG ([15]; 50 mM sodium phosphate) of -44.4 kJ/mol. It also gave a ΔHcal ([15]; 50 mM sodium phosphate) of -81.6 kJ/mol, a ΔG [16] of -48.5 kJ/mol and a ΔH [16] of -50.6 kJ/mol. For the same substance, the koff [17] was 7.78e-05 s⁻¹ and the kon [17] was 56300 M⁻¹ s⁻¹.
